Assay: yeast display, Sf9 membrane polyspecificity reagent, FACS + sequencing; frameworks hold sequencing errors
Procedure, shortened: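 A synthetic nanobody library was expressed on Saccharomyces cerevisiae BJ5465 by galactose induction for 36–48 hours. The library was stained for 1 hour at 4 °C with 10% biotinylated, detergent-solubilized Sf9 membrane reagent and enriched with streptavidin microbeads before FACS. Low and high (top ~1%) gates were set on anti-HA fluorescence for expression and streptavidin fluorescence for reagent binding, and each polyreactivity label reflects the gate of origin.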

| Sequence | polyreactivity (PSR sort gate) |
| --- | --- |
| QVQLGESGGGLVQAGGSLRLSCAASGSTFITYAMGLYRQAPGKERELVAAITRGGRRYYADSVKGRFTISRDNAKNTVYLQMNSLKPEDTAVYYCAARDWASHTPFDYWGQGTQVTVSS | high polyreactivity |
| QVQLGESGGGLVQAGGSLRLSCAASGSTFNIYAMGWSRQSPGNERELVAAISSCGGRTYYADSVKGRFTISLDNAKNTVYLQMNSVKPEDTAVYYCAAVRSYYRGYDYWGQGTQVTVSS | high polyreactivity |
| QVQLGESGGGLVQAGGSLRLSCAASGSTFRINAMGWYRQAPGKERELVADINSGGNTTYADSVKGRFTISRDNAKNTVYLQMNSLKPEDTAVYYCAAPRTYYSELTSPYDYCGQGTQVTVSS | low polyreactivity |
| QVQLGESGGGLVQAGGSLRLSCAASGSTFVRYAMGWYRQAPGKERELVAGISYSGGRTYYADSVKGRFTISRDNAKNTVYLQMNSLKPEDTAVYYCAAEGTTSWWVKYGYWGQGTQVTVSS | low polyreactivity |
| QVQLGESGGGLVQAGGSRRLSCAASGLIFASNAMGWYRQAPGKEREFDAAISISGGSTYYADSVKGRFTISRDNAKNTVYLQMNSLKPEDTAVYYCAAKLYTVRRPELDYWGQGTQVTVSS | low polyreactivity |
| QVQLGESGGGLVQAVGSLRLSCAASGITFVYYAMGWSRQEPGKERELVSSISSADNTNYADSVKGRFTISRDNAKNTVYLQMNSLKPEDTAVYYCAADYWWHLRHYSTGGYWGQGTQVTVSS | low polyreactivity |
| QVQLGESGGRLVQAGGSLRLSCAASGSTFPTNAMGWSRQGPGKERELVAAITSTGSTYADSVKGRYTISRDNVKNTVYLQMNSVKPEDTAVYYCAADTQWTTPYDYWGQGTQVTVSS | low polyreactivity |
| QVQLGESGVGLVQAGGSHRLSCAASGSTSPINAMGWYRQAPGKERELVAVISSSGGRTYYADSVKGRFTISRDNAKNTVYLQMNSLKPEDTAVYYCANRFSRRQPDYDYWGQGTQVTVSS | high polyreactivity |
| QVQLHESGGGLEQEGGSLRLTCEASGNISPPADMGWYRQAPRKERELVASIGTGGTTNYADIVKARFTISRDNAKNTVYLQMNSLKPDDTSVYYWAAVRYEYNPYDYWGQGTQVTVSS | low polyreactivity |
| QVQLHESGGGLLQAGGTLRLSCAASGTISYAGPMCWYRQSPGKEREFVAGIGVGSNTNYADSVKGRYTIIRDNAKNTVYLQMNSLKPEDTAVYYCAVGGFAPLGRPYWGQGTQVTVSS | low polyreactivity |
| QVQLHESGGGLVQAGGSLRLSCAASGTISVTYNMAWYRQAPGKEREFVAGNSTGATTNYADSVKGRFTISRDNAKNTVYLQMNSLKPEDTAVYYCAAHIYRQDHFYYWGQGTQVTVSS | low polyreactivity |
| QVQLHESGGGLVQAGGSLRLSCAASGTISYAGPMGWYRQAPGKEREFVAGIGVGSNTNYADSVKGRYTIIRDNAKNTVYLQMNSLKPEDTAVDYCAVGGYAPLGRPYWGQGTQVTVSS | low polyreactivity |
| QVQLHESGGGLVQAGGSLRLSCAASGTISYAGPMGWYRQAPGKEREFVAGIGVGSNTNYADSVKGRYTIIRDNAKNTVYLQMNSLQPEDTAVYYCAVGGFAPLGRPYWGQGTQVTVSS | low polyreactivity |
| QVQLHESGGGMVQAGGSLRLSSAASGIIFDNPNMGWYRLSPGKERELVATINSGATTNYADSVKGRFTISRDNEKNTVYLLMNSLIPEETAVYFCAVDLSPTYFYYWGQGTKVTVSS | high polyreactivity |
| QVQLIESGGGLVKAGGSLRLSCAATGSIFYRNTMGWYRQAPGKERELVARISWSGGRTYYADSVKGRFTISRDNAKNTVYLQMNSLKPEDTAVYYCAASTYGQRGTSYGYWGQGTQVSVSS | low polyreactivity |
| QVQLIESGGGLVQAGGSLRLSCAASGIIFRTYAMGWYRQAPGKERELVAAITSGGSTNYADSVKGRFTISRDNAKNTVYLQMNSLKPEDTAVYYCAARTYTSRYSYGYWGQGTQVTVSS | high polyreactivity |
| QVQLIESGGGLVQAGGSLRLSCAASGSTFERNTMGWYRQAPGKERELVAAITSGGRTYYADSVKGRFTISRDNAKNTVYLQMNSLKPEDTAVYYCAARLGRHVSYWRSGWTNMDYWGQGTQVTVSS | high polyreactivity |
